The values that follow come from patent publication US20240043504A1 (published 2024).

B1: mAb11006 (antibody, V domains shown)
VH: EVQLVESGGGLVQPGGSLRLSCAASGFIVSRNYMSWVRQAPGKGLEWVSVIYSGGSTFYADSVKGRFTISRHNSKNTLYLQMNSLKAEDTAVYYCARELRGYFDYWGQGTLVTVSS
VL: DIQLTQSPSFLSASVGDRVTITCWASQGISSYLAWYQQKPGKAPKLLIYAASTLQSGVPSRFSGSGSGTEFTLTISSLQPEDFATYYCQLLNSYPYTFGQGTKLEIKR
B2: mAb11008 (antibody, V domains shown)
VH: EVQLVESGGGLVQPGGSLRLSCAASGFTVSSNYMTWVRQAPGKGLEWVSVIYSGGSTFYADSVKGRFTISRHNSENTLYLQMNSLRAEDTAVYYCARDLAAAGTDYWGQGALVTVSS
VL: DIQLTQSPSFLSASVGDRVTITCWASQGISSYLAWYQQKPGKAPKLLIYAASTLQSGVPSRFSGSGSGTEFTLTISSLQPDDFATYYCQHLNSYLYTFGQGTKLEIKR
B3: mAb11002 (antibody, V domains shown)
VH: EVQLVESGGGLVQPGGSLRLSCAASGFTVSSNYMSWVRQAPGKGLEWVSVIYSGGSTFYADSVKGRFTISRHNSKNTLYLQMNSLRAEDTAVYYCAREGYGMDVWGQGTTVTVSS
VL: not shown
B4: mAb11004 (antibody, V domains shown)
VH: QVQLVESGGGVVQPGRSLRLSCVASGFTFSIYGMDWVRQAPGKGLEWVAVISYDGSNKYYADSVKGRFTISRDNSKNTLYLQMNSLRPEDTAVYYCAKDREAAADAFDIWGQGTMVTVSS
VL: DIQMTQSPSSVSASVGDRVTITCRASQGISSWLAWYQQKPGKAPKLLIYAASSLHSGVPSRFSGSGSGTDFTLTISSLQPEDFATYYCQQANSFRLTFGGGTKVEIKR
B5: mAb11010 (antibody, V domains shown)
VH: QVQLVESGGGVVQPGRSLRLSCAASGFTFSSYGMHWVRQAPGKGLEWVAVISYDGSYKYYADSVKGRFTISRDNSKNTLYLQMNSLRAEDTAVYYCAIDGGTVTTIFDYWGQGTLVTVSS
VL: not shown
B6: mAb10923 (antibody, V domains shown)
VH: QVQLVQSGAEVKKPGASVKVSCKASGYTFINYYIHWVRQAPGQGLEWMGWINPNSGGTNYAQKFQGRVTMTRDTSISTAYMELSRLRSDDTAVYYCAIITIFGVVTWFDPWGQGTLVTVSS
VL: not shown
B7: mAb10913 (antibody, V domains shown)
VH: EVQLVESGGGLVQPGGSLRLSCAASGFTFRNYEMNWVRQAPGKGLEWVSYITSSGSTMYYADSVKGRFTISRDNAKNSLYLQMNSLRAEDTAVYYCARDGFYYYYAMDVWGQGTTVTVSS
VL: QSVLTQPPSVSAAPGQKVTISCSGSSSNIGNNYVSWYQQLPGTAPKLLIYDNNKRPSGIPDRFSGSKSGTSATLGITGLQTGDEADYYCGTWDSSLSVGRVFGTGTKVTVLG
B8: mAb10914 (antibody, V domains shown)
VH: EVQLVESGGGLVQPGGSLRLSCAASGLIVSRNYMIWVRQAPGKGLEWVSVIYSGGSTFYADSVKGRFTISRHNSKNTLYLQMNSLRAEDTAVYYCARDLGTGGMDVWGQGTTVTVSS
VL: DIQLTQSPSFLSASVGDRVTITCWASQGISSYLAWYQQKPGKAPKLLIYAASTLQSGVPSRFSGSGSGTEFTLTISSLQPEDFATYYCQQLNSYPLTFGGGTKVEIKR
B9: mAb10915 (antibody, V domains shown)
VH: EVQLVESGGGLVQPGGSLRLSCAASGFTVSSNYMNWVRQAPGKGLEWVSVIYSGGSTFYADSVKGRFTISRHNSKNTLYLQMNSLRPEDTAVYYCARDLGGYFDYWGQGTLVTVSS
VL: not shown
B10: mAb10936 (antibody, V domains shown)
VH: QVQLVESGGGVVQPGRSLRLSCAASGFTFRNYGMHWVRQAPGKGLEWVSVIWYDGSNRYYADSVKGRFTISRDTSKNTLYLQMNSLRAEDTAVYYCARDPPITGTTGGDAFDIWGQGTMVTVSS
VL: not shown
B11: mAb10939 (antibody, V domains shown)
VH: EVQLVESGGGLVQPGGSLRLSCAASGLTVSSNYMNWVRQVPGKGLEWVSVIYSGGSKFYVDSVKGRFTISRHNSKNTLYLQMNSLRPEDTAVYYCTRDAQYYGMDVWGQGTTVTVSS
VL: DIQMTQSPSSLSASVGDRVTITCRASQSISTYLHWYQQKPGEAPKLLIYAASSLQSGVPSRFSGSGSGTDFTLTISSLQPEDFATYYCQQSYSTPPEIFGQGTKLEIKR
B12: mAb10920 (antibody, V domains shown)
VH: QVQLVESGGGVVQPGRSLRLSCAASGFTFSYYGMHWVRQAPGKGLEWVAVIWYDGSNKFYADSVKGRFTISRDNSKNTLYLQMNSLRAEDTAVYYCAAARPGYYYGMDVWGQGTTVTVSS
VL: DIQMTQSPSSLSASVGDRVTITCRASQGISNYLAWFQQKPGKAPNSLIYAASSLQRGVPSKFSGSGSGTDFTLTISSLQPEDFATYYCQQYNSYPRTFGQGTKVEIKR
B13: mAb10932 (antibody, V domains shown)
VH: EVQLVESGGGLVQSGGSLRLSCAASGLTVSSNYMSWVRQAPGKGLEWVSVIYSGGSTFYSDSVKGRFTISRHNSKNTLYLQMNSLRAEDTAVYYCARARGDAFDIWGQGTMVTVSS
VL: not shown
B14: mAb10937 (antibody, V domains shown)
VH: QITLKESGPTLVKPTQTLTLTCTFSGFSLSTNVVGVGWIRQPPGKALEWLALIYWNDDKRYSPSLKSRLTITKDTSKNQVVLTMTNMDPVDTATYYCAHGPTGDYFDYWGQGTLVTVSS
VL: not shown
B15: mAb10921 (antibody, V domains shown)
VH: EVQLVESGGGLVQPGGSLRLSCAASGITVSSNYMSWVRQAPGKGLEWVSVIYSGGSTFYADSVKGRFTISRHNSKNTLYLQMNSLRAEDTAVYYCARERNFDAFDIWGQGTMVTVSS
VL: DIQMTQSPSSVSASVGDRVTITCRASQGISSWLAWYQQKPGKAPKLLIYAASSLQSGVPSRFSGSGSGTDFTLTISSLQPEDFATYYCQQANSFPLFTFGPGTKVDIKR
B16: mAb10930 (antibody, V domains shown)
VH: EVQLVESGGGLVQPGRSLRLSCAASGFTFDDYAMYWVRQAPGKGLEWVSGISWNSGSIGYADSVKGRFTISRDNAKNSLYLQMNSLRAADTALYYCAKDKDWNSRGYYYYGMDVWGQGTTVTVSS
VL: not shown
B17: mAb10934 (antibody, V domains shown)
VH: not shown
VL: DIQMTQSPSSLSASVGDRVTITCQASQDIWNYINWYQQKPGKAPKLLIYDASNLKTGVPSRFSGSGSGTDFTFTISSLQPEDIATYYCQQHDDLPPTFGQGTKVEIKR
B18: mAb10955 (antibody, V domains shown)
VH: EVQLVESGGGLVQPGGSLRVSCAASGFTVSRNYMSWVRQAPGKGLEWVSVIYSGGSTFYADSVKGRFTISRDNSKNTLYLQMNSLRAEDTAIYYCARYIPRFDPWGQGTLVTVSS
VL: DIQMTQSPSSLSASVGDRVTITCQASQDISNYLNWFQQKPGRAPKLLIYDASNLETGVPSRFSGSGSGTDFTFTISSLQPEDIATYYCQQYDNLPITFGQGTRLEIKR
B19: mAb10938 (antibody, V domains shown)
VH: EVQLVESGGGLVQPGGSLRLSCAVSGFTVSSNYMSWVRQAPGKGLEWVSLIYSGGSTFYADSVKGRFTISRHNSKNTLYLQMNSLRAEDTAVYYCAREGGYSYDYNYWGQGTLVTVSS
VL: DIQMTQSPSSLSASVGDRVTITCQASQDIRNYLNWYQQKPGKAPKLLIYDASNLETGVPSRFSGIGSGTDFTFTISSLQPEDIATYYCQQYDNLPITFGQGTRLEIKR
B20: mAb10954 (antibody, V domains shown)
VH: EVQLVESGGGLVQPGGSLRLSCAASGITVSSNYMSWVRQAPGKGLEWVSLIYSGGSTYYADSVKGRFTISRDNSKNTLYLQMNSLRVEDTAVYYCARDHGMAAAGYNYWGQGTLVTVSS
VL: DIQMTQSPSSLSASVGDRVTITCQASQDINKYLNWYQQKPGKAPKLLIYDASNLETGVPSRFSGSGSGTDFTFTINSLQPEDFATYFCQQYDNLPPAFGQGTKVEIKR
B21: mAb10935 (antibody, V domains shown)
VH: EVQLVESGGGLVQPGGSLRLSCAASGFTVSSNYMSWVRQAPGKGLEWVSLIYSGGSTYYADSVKGRFTISRHNSKNTLYLQMNSLRSEDTAVYYCARVPLGDYYYGMDVWGQGTTVTVSS
VL: DIQMTQSPSSLSASVGDRVTITCQASQDINKYLNWYQQKPGKAPKLLIYDASNLETGVPSRFSGSGSGTDFTFTISSLQPEDIATYYCQQSDNLPLTFGGGTKVEIKR

Usually Kd stands for the equilibrium constant for the complex coming apart. High values mean weaker binding, low ones tighter binding. Broadly, the t½ is how long it takes for the measured level to halve. A low value points to rapid decline. By koff is commonly meant the rate constant with which the complex falls apart. In general, kon refers to a measure of how fast the partners come together. High values mean faster complex formation, low ones slower complex formation.

The target of one assay is SARS-COV-2 RBD extracellular domain expressed with a C-terminal mouse IgG2a (SARS-CoV-2). As to the kind of experiment: SPR Biacore, mAb captured via anti-hFc, 25 C. In general terms: In SPR one partner is held on a chip, and binding of the other changes the refractive index at the surface.
As to B1, the affinity, expressed as Kd, was 0.158 nM and the “t½” value was 3.69 h.

On to B2, for which the dissociation constant (Kd) turned out to be 0.492 nM, the dissociation rate constant (koff) is 0.000192 s⁻¹, the on-rate (kon) was found to be 390000 M⁻¹ s⁻¹ and the “t½” value was 1 h.

Regarding B3, the Kd was determined as 4.46 nM and the “t½” value came to 0.0783 h.

Take B4: the dissociation constant Kd was determined as 0.0921 nM, the off-rate (koff) turned out to be 6.4e-05 s⁻¹, the kon amounted to 695000 M⁻¹ s⁻¹ and the “t½” value stood at 3.01 h.

Regarding B5, the Kd stood at 0.0789 nM and the “t½” value was 2.14 h.

The next assay addresses SARS-COV-2 RBD extracellular domain expressed with a C-terminal mouse IgG2a (SARS-COV-2 RBD-mFc) (SARS-CoV-2). As to the kind of experiment: SPR, captured mAb, RBD-mFc in solution, 37 C.
For B6, the Kd turned out to be 0.0336 nM, the dissociation rate constant (koff) came out at 0.000185 s⁻¹, the kon amounted to 5.53e+06 M⁻¹ s⁻¹ and the “t½” value stood at 1.04 h.

Turning to B7, the dissociation constant (Kd) stood at 0.274 nM, the koff came out at 0.00173 s⁻¹, the association rate constant (kon) stood at 6.32e+06 M⁻¹ s⁻¹ and the “t½” value amounted to 0.112 h.

Regarding B8, the equilibrium dissociation constant (Kd) was determined as 0.318 nM and the “t½” value worked out at 0.875 h.

Take B9: the dissociation constant Kd is 0.156 nM and the “t½” value worked out at 2.79 h.

B10: the Kd is 0.0177 nM, the dissociation rate constant (koff) was 6.75e-05 s⁻¹, the on-rate (kon) was 3.81e+06 M⁻¹ s⁻¹ and the “t½” value was found to be 2.85 h.

Take B11: the Kd amounted to 0.155 nM, the koff was determined as 0.000165 s⁻¹, the association rate constant (kon) came out at 1.06e+06 M⁻¹ s⁻¹ and the “t½” value is 1.17 h.

Take B12: the dissociation constant (Kd) came to 0.119 nM and the “t½” value came out at 0.255 h.

Consider B13, for which the dissociation constant (Kd) came to 0.153 nM, the off-rate (koff) is 6.86e-05 s⁻¹, the kon stood at 448000 M⁻¹ s⁻¹ and the “t½” value turned out to be 2.81 h.

Take B14: binding was characterised by a dissociation constant (Kd) of 0.0129 nM, the koff amounted to 5.74e-05 s⁻¹, the kon was determined as 4.47e+06 M⁻¹ s⁻¹ and the “t½” value worked out at 3.35 h.

For B15, the equilibrium dissociation constant (Kd) was determined as 0.273 nM, the off-rate constant (koff) is 0.000125 s⁻¹, the kon is 458000 M⁻¹ s⁻¹ and the “t½” value was 1.54 h.

For the molecule B16, the affinity, expressed as Kd, was 0.399 nM; the koff amounted to 0.000597 s⁻¹; the on-rate constant (kon) worked out at 1.49e+06 M⁻¹ s⁻¹; the “t½” value came out at 0.322 h.

Regarding B17, the affinity, expressed as Kd, was 0.0216 nM and the “t½” value amounted to 0.657 h.

Regarding B18, the equilibrium dissociation constant (Kd) is 0.202 nM and the “t½” value is 0.497 h.

In the case of B19, the affinity, expressed as Kd, was 0.173 nM and the “t½” value was determined as 2.94 h.

With B20, the dissociation constant (Kd) was 0.0369 nM.

As for B21, the Kd worked out at 0.0869 nM, the koff was determined as 0.000494 s⁻¹, the kon was determined as 5.68e+06 M⁻¹ s⁻¹ and the “t½” value was 0.39 h.
